The source of these data is patent US20220290162.

The data set has as its target Bxb1 serine integrase with ssrA degradation tag (Mycobacteriophage Bxb1?) (UniProt Q9B086). Nature of the data set: cell_activity. The following applies: attB x attP inversion of P7 promoter, switched cells 42 C vs 37 C; E. coli Nissle.

As to “GGGTTTGTACCGTACACCACTGAGACCGCGGTGGTTGACCAGACAAACCACGA (double strand) [Bxb1 attP]”, the activity is > 100 fold.

On to “TCGGCCGGCTTGTCGACGACGGCGGTCTCCGTCGTCAGGATCATCCGGGC (double strand) [Bxb1 attB]”, for which the activity was > 100 fold.
